Publication PMC6888645 (2019)

B1: DD-N-CAP2, human CAP2 helical folded domain with the coiled coil (a.a. 1-29) replaced by the dimerization domain 2L4HC2_23 (other)
chain: GTRTEIIRELERSLREQEELAKRLKELLRELERLQREGSSDEDVRELLREIKELVEEIEKLAREQKYLVEELKRQDGNCGEVNGVIAGVAPSVEAFDKLMDSMVAEFLKNSRILAGDVETHAEMVHSAFQAQRAFLLMASQYQQPHENDVAALLKPISEKIQEIQTFRERNRGSNMFNHLSAVSESIPALGWIAVSPKPGPYVKEMNDAATFYTNRVLKDYKHSDLRHVDWVKSYLNIWSELQAYIKEHHTTGLTWSKTGPVASTVS
B2: TD-N-CAP2, human CAP2 helical folded domain with the coiled coil (a.a. 1-29) replaced by the trimerization domain 2L6HC3_6 (other)
chain: GTKYKIKETLKRLEDSLRELRRILEELKEMLERLEKNPDKDVIVEVLKVIVKAIEASVENQRISAENQKALAESDGNCGEVNGVIAGVAPSVEAFDKLMDSMVAEFLKNSRILAGDVETHAEMVHSAFQAQRAFLLMASQYQQPHENDVAALLKPISEKIQEIQTFRERNRGSNMFNHLSAVSESIPALGWIAVSPKPGPYVKEMNDAATFYTNRVLKDYKHSDLRHVDWVKSYLNIWSELQAYIKEHHTTGLTWSKTGPVASTVS
B3: ΔCC-N-CAP2, helical folded domain of human CAP2 with the coiled coil deleted (a.a. 30-220) (domain or fragment)
chain: GNCGEVNGVIAGVAPSVEAFDKLMDSMVAEFLKNSRILAGDVETHAEMVHSAFQAQRAFLLMASQYQQPHENDVAALLKPISEKIQEIQTFRERNRGSNMFNHLSAVSESIPALGWIAVSPKPGPYVKEMNDAATFYTNRVLKDYKHSDLRHVDWVKSYLNIWSELQAYIKEHHTTGLTWSKTGPVASTVS
B4: TD-N-CAP1, human CAP1 helical folded domain with the coiled coil (a.a. 1-29) replaced by the trimerization domain 2L6HC3_6 (other)
chain: GTKYKIKETLKRLEDSLRELRRILEELKEMLERLEKNPDKDVIVEVLKVIVKAIEASVENQRISAENQKALAESDGYADSPSKAGAAPYVQAFDSLLAGPVAEYLKISKEIGGDVQKHAEMVHTGLKLERALLVTASQCQQPAENKLSDLLAPISEQIKEVITFREKNRGSKLFNHLSAVSESIQALGWVAMAPKPGPYVKEMNDAAMFYTNRVLKEYKDVDKKHVDWVKAYLSIWTELQAYIKEFHTTGLAWSKTGPVAKELSGL
B5: N-CAP1, N-terminal fragment of human cyclase-associated protein 1 (original coiled coil and helical folded domain) (domain or fragment)
chain: MADMQNLVERLERAVGRLEAVSHTSDMHRGYADSPSKAGAAPYVQAFDSLLAGPVAEYLKISKEIGGDVQKHAEMVHTGLKLERALLVTASQCQQPAENKLSDLLAPISEQIKEVITFREKNRGSKLFNHLSAVSESIQALGWVAMAPKPGPYVKEMNDAAMFYTNRVLKEYKDVDKKHVDWVKAYLSIWTELQAYIKEFHTTGLAWSKTGPVAKELSGL
B6: DD-N-CAP1, human CAP1 helical folded domain with the coiled coil (a.a. 1-29) replaced by the dimerization domain 2L4HC2_23 (other)
chain: GTRTEIIRELERSLREQEELAKRLKELLRELERLQREGSSDEDVRELLREIKELVEEIEKLAREQKYLVEELKRQDGYADSPSKAGAAPYVQAFDSLLAGPVAEYLKISKEIGGDVQKHAEMVHTGLKLERALLVTASQCQQPAENKLSDLLAPISEQIKEVITFREKNRGSKLFNHLSAVSESIQALGWVAMAPKPGPYVKEMNDAAMFYTNRVLKEYKDVDKKHVDWVKAYLSIWTELQAYIKEFHTTGLAWSKTGPVAKELSGL
B7: ΔCC-N-CAP1, helical folded domain of human CAP1 with the coiled coil (a.a. 1-29) deleted (domain or fragment)
chain: GYADSPSKAGAAPYVQAFDSLLAGPVAEYLKISKEIGGDVQKHAEMVHTGLKLERALLVTASQCQQPAENKLSDLLAPISEQIKEVITFREKNRGSKLFNHLSAVSESIQALGWVAMAPKPGPYVKEMNDAAMFYTNRVLKEYKDVDKKHVDWVKAYLSIWTELQAYIKEFHTTGLAWSKTGPVAKELSGL

Biological target: T1, F-actin (skeletal muscle actin, polymerised) ( (rabbit or chicken skeletal …, UniProt P68135 1-377))

First: B1
Second: B2
The Kd of the first is 10-fold higher: 7.11 µM for the first, 0.68 µM for the second. The second binds more tightly here.

For B3, the Kd was 21.9 µM.

Biological target: T1, F-actin (skeletal muscle actin, …)
Remark: another data set of the same source

First: B4
Second: B5
The Kd of the first is 3.3-fold higher: 2.97 µM for the first, 0.91 µM for the second. The second binds more tightly here.

Compared with B6, B7 is 1.7-fold higher in Kd: 3.42 µM for the first, 5.69 µM for the second.
